Where a chain is given by its changes, count along the chain named. Names may count otherwise.
T1: Yeast Hat2p (full length) with N-terminal 6xHis tag (yeast (Saccharomyces cerevisiae), UniProt P39984 1-401)
T1 sequence: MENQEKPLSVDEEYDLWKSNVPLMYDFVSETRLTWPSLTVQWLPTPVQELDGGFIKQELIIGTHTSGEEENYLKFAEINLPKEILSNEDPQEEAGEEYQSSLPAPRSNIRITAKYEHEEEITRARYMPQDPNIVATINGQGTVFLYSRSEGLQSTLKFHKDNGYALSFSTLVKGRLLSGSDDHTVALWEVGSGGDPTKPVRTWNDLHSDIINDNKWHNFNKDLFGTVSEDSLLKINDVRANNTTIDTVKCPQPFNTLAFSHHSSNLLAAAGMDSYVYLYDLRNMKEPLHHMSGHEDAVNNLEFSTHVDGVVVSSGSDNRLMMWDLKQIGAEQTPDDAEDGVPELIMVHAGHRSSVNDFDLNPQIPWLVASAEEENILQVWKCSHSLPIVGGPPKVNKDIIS

B1: Yeast Hat1p (1-320) (enzyme)
chain: MSANDFKPETWTSSANEALRVSIVGENAVQFSPLFTYPIYGDSEKIYGYKDLIIHLAFDSVTFKPYVNVKYSAKLGDDNIVDVEKKLLSFLPKDDVIVRDEAKWVDCFAEERKTHNLSDVFEKVSEYSLNGEEFVVYKSSLVDDFARRMHRRVQIFSLLFIEAANYIDETDPSWQIYWLLNKKTKELIGFVTTYKYWHYLGAKSFDEDIDKKFRAKISQFLIFPPYQNKGHGSCLYEAIIQSWLEDKSITEITVEDPNEAFDDLRDRNDIQRLRKLGYDAVFQKHSDLSDEFLESSRKSLKLEERQFNRLVEMLLLLNNS
B2: Hat1p Y37A (enzyme)
chain: B1 chain with Y37A
B3: Hat1p A202D (enzyme)
chain: B1 chain with A202D
B4: Hat1p Y196A (enzyme)
chain: B1 chain with Y196A
B5: Hat1p Y194A (enzyme)
chain: B1 chain with Y194A
B6: Hat1p A163Y (enzyme)
chain: B1 chain with A163Y

target: T1, Yeast Hat2p (full length) with …; experiment: crystal structure

Binding result, binds:
ARTKQTARKSTGGKA [H3 peptide (residues 1-15), unmodified]

target: T1, Yeast Hat2p (full length) with …; experiment: pull-down

Binding result, binds:
B1
B2
B3
B4
B5
B6

Reference: paper PMC4052767 (Genes & Development, 2014)
